Patent publication US20160108110A1 (Novartis, published 2016)
Like-named read-outs stand apart in the source and are kept apart here. Blank lines part the entries; values can stand above or below the binder they belong to.

What was measured:
[1] = biological target: T1, Human ANGPTL4(26-406)-FLAG-His6-Avi (human, UniProt Q9BY76 24-406, biotin on the C-terminal Avi tag in the biotinylated preparations (immobilised form in SET, ELISA and Octet)); assay: cell-based or functional assay
T1 sequence: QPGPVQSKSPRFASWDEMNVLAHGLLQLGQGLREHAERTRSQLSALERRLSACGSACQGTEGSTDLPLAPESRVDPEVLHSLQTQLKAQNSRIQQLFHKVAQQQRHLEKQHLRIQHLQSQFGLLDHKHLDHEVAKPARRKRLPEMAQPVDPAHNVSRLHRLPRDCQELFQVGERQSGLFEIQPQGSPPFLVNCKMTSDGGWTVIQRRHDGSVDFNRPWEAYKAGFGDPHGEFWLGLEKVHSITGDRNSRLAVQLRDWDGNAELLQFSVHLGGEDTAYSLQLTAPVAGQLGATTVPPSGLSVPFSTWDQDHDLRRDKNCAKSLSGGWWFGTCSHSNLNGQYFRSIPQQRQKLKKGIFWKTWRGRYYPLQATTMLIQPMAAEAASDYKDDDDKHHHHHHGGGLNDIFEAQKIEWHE

[2] = biological target: T1, Human ANGPTL4(26-406)-FLAG-His6-Avi; assay: ForteBio Octet, biotinylated antigen on streptavidin sensor, antibody in solution
Method: Dissociation constants (KD) were determined for selected antibodies of the invention by using an Octet (ForteBio) kinetic binding assay. ForteBio 10× Kinetics Buffer (ForteBio, catalog number 18-5032) was diluted 10-fold with DPBS (Life Technologies, catalog number 14190-136), and the resulting solution was added (0.2 ml per well) to a 96-well plate (Greiner, catalog number 65520). Streptavidin sensors (ForteBio, catalog number 18-5020) were immersed in the solution and equilibrated for at least 10 min at room temperature. In a second 96-well plate (Greiner, catalog number 65520), sensors were washed in 1× Kinetics buffer, and then immersed in 200 ul of 25 nM biotinylated human ANGPTL4 or a biotinylated reference protein (for background substraction) for 1000 sec […] at room temperature. The sensors were then washed in 1× Kinetics buffer for 120 sec, and immersed in 200 ul of ANGPTL4 antibody diluted in 1× Kinetics buffer at various concentrations (serial 2-fold dilutions ranging from 25 nM to 0.4 nM), and antibody association was monitored for 480 seconds. The sensors were then transferred to a well containing 200 ul 1× Kinetics buffer, and antibody dissociation was monitored for 1200 seconds. Background-corrected association and dissociation curves were globally fitted by Octet Software (ForteBio) to generate association (kₒₙ) and dissociation (koff) rate constants, which in turn were used to calculate equilibrium dissociation constants (KD).

[3] = biological target: T1, Human ANGPTL4(26-406)-FLAG-His6-Avi; assay: cell-based or functional assay; remark: listed apart in the source
[4] = biological target: T1, Human ANGPTL4(26-406)-FLAG-His6-Avi; assay: cell-based or functional assay; remark: listed apart in the source
[5] = biological target: T2, ANGPTL4-derived peptide P17 (human); assay: peptide array, immobilised linear 15-mers
T2 construct: printed with S where human ANGPTL4 has C
T2 peptide: SASGSASQGTEGSTD
Method: (§1) The ability of selected antibodies of invention, namely MOR022765 and MOR022770, to bind to linear 15-amino-acid peptides derived from the N-terminal coiled coil domain of human ANGPTL4 was tested. The peptides were immobilized on a glass surface, and the ability of MOR022765 and MOR022770 to bind to the immobilized peptides was evaluated using experimental methods optimized for linear peptide epitope mapping at JPT Peptide Technologies (Berlin, Germany).

[6] = biological target: T3, ANGPTL4-derived peptide P9 (human); assay: peptide array, immobilised linear 15-mers
T3 peptide: QLGQGLREHAERTRS
Method: as §1

[7] = biological target: T4, ANGPTL4-derived peptide P26 (human); assay: peptide array, immobilised linear 15-mers
T4 peptide: VLHSLQTQLKAQNSR
Method: as §1

[8] = biological target: T5, ANGPTL4-derived peptide P10 (human); assay: peptide array, immobilised linear 15-mers
T5 peptide: QGLREHAERTRSQLS
Method: as §1

[9] = biological target: T6, ANGPTL4-derived peptide P2 (human); assay: peptide array, immobilised linear 15-mers
T6 peptide: QSKSPRFASWDEMNV
Method: as §1

[10] = biological target: T7, ANGPTL4-derived peptide P39 (human); assay: peptide array, immobilised linear 15-mers
T7 peptide: LQSQFGLLDHKHLDH
Method: as §1

[11] = biological target: T8, ANGPTL4-derived peptide P4 (human); assay: peptide array, immobilised linear 15-mers
T8 peptide: FASWDEMNVLAHGLL
Method: as §1

[12] = biological target: T9, ANGPTL4-derived peptide P37 (human); assay: peptide array, immobilised linear 15-mers
T9 peptide: HLRIQHLQSQFGLLD
Method: as §1

[13] = biological target: T10, ANGPTL4-derived peptide P23 (human); assay: peptide array, immobilised linear 15-mers
T10 peptide: APESRVDPEVLHSLQ
Method: as §1

[14] = biological target: T11, ANGPTL4-derived peptide P20 (human); assay: peptide array, immobilised linear 15-mers
T11 peptide: TEGSTDLPLAPESRV
Method: as §1

[15] = biological target: T12, ANGPTL4-derived peptide P8 (human); assay: peptide array, immobilised linear 15-mers
T12 peptide: GLLQLGQGLREHAER
Method: as §1

[16] = biological target: T13, ANGPTL4-derived peptide P41 (human); assay: peptide array, immobilised linear 15-mers
T13 peptide: LLDHKHLDHEVAKPA
Method: as §1

[17] = biological target: T14, ANGPTL4-derived peptide P29 (human); assay: peptide array, immobilised linear 15-mers
T14 peptide: KAQNSRIQQLFHKVA
Method: as §1

[18] = biological target: T15, ANGPTL4-derived peptide P42 (human); assay: peptide array, immobilised linear 15-mers
T15 peptide: HKHLDHEVAKPARRK
Method: as §1

[19] = biological target: T16, ANGPTL4-derived peptide P38 (human); assay: peptide array, immobilised linear 15-mers
T16 peptide: IQHLQSQFGLLDHKH
Method: as §1

[20] = biological target: T1, Human ANGPTL4(26-406)-FLAG-His6-Avi; assay: cell-based or functional assay; remark: listed apart in the source

Reversal of human ANGPTL4 inhibition of human LPL EC50 [1]: 2 nM
Kd [2]: 0.444 nM
koff [2]: 9.9e-05 s⁻¹
kon [2]: 220000 M⁻¹ s⁻¹
EC50 (read off the curve) [1(C] [3]: ~3 nM
B1: MOR021798 (antibody, human IgG1, lambda, V domains shown)
VH: QVQLLESGGGLVQPGGSLRLSCAASGFTFSDYALHWVRQAPGKGLEWVSRISYMGSSTYYADSVKGRFTISRDNSKNTLYLQMNSLRAEDTAVYYCAREHYYSSPMGGVAVDNWGQGTLVTVSS
VL: DIVLTQPPSVSGAPGQRVTISCSGSSSNIGYNTVSWYQQLPGTAPKLLIYSNNIRPSGVPDRFSGSKSGTSASLAITGLQAEDEADYYCSSWDFLIKSLVFGGGTKLTVLG
notes: human IgG1

Reversal of human ANGPTL4 inhibition of human LPL EC50 [1]: 1 nM
Kd [2]: 0.184 nM
koff [2]: 6.5e-05 s⁻¹
kon [2]: 250000 M⁻¹ s⁻¹
EC50 (read off the curve) [1(A] [4]: 1 to 2 nM
B2: MOR021792 (antibody, human IgG1, lambda, V domains shown)
VH: QVQLLESGGGLVQPGGSLRLSCAASGFTFSDYAMDWVRQAPGKGLEWVSKISYDGSYTYYADSVKGRFTISRDNSKNTLYLQMNSLRAEDTAVYYCARPSMSYYIIPAGFDVWGQGTLVTVSS
VL: DIELTQPPSVSVSPGQTASITCSGDALGVKRASWYQQKPGQAPVLVIYKDNNRPSGIPERFSGSNSGNTATLTISGTQAEDEADYYCSVRTWSMNLYVFGGGTKLTVLG

binding result [5]: no binding
binding result [6]: no binding
binding result [7]: no binding
binding result [8]: no binding
binding result [9]: no binding
binding result [10]: no binding
binding result [11]: no binding
binding result [12]: no binding
binding result [13]: no binding
binding result [14]: no binding
binding result [15]: no binding
binding result [16]: no binding
binding result [17]: no binding
binding result [18]: no binding
binding result [19]: no binding
Reversal of human ANGPTL4 inhibition of human LPL EC50 [20]: 3 nM
B3: MOR022765 (antibody, human IgG1, lambda, V domains shown)
VH: EVQLVQSGAEVKKPGESLKISCKGSGYSFSTYWISWVRQMPGKGLEWMGIIDPSSSDTRYSPSFQGQVTISADKSISTAYLQWSSLKASDTAMYYCARVYGYVYMDVWGQGTLVTVSS
VL: SYELTQPLSVSVALGQTARITCSGDNLGKKYAYWYQQKPGQAPVLVIYDKTKRPSGIPERFSGSNSGNTATLTISRAQAGDEADYYCASYDWYSSSYVFGGGTKLTVLG
notes: human IgG1
